Source: patent WO2021244601A1 (dated 2021)

B1: CA304 (antibody, V domains shown)
VH: EVQLQQWGAGLLKPSETLSLTCAVYGGSFSGYYWSWIRQPPGKGLEWIGEVNHSGSTNYNPSLKSRVTISVDTSKNQLSLKLNSVTAADTAVYYCARGNTMVRGVIIPFEYWDKGTLVTVSS
VL: DIVMTQTPLSLPVTLGQPASISCRSSQSLVHSDGNTYLNWFQQRPGQSPRRLIYKVSNRDSGVPDRFSGSGAGTDFTLKISRVEAEDVGVYYCTQATQFPFTFGPGTKVDIKR
B2: CA555 (antibody, V domains shown)
VH: B1 VH
VL: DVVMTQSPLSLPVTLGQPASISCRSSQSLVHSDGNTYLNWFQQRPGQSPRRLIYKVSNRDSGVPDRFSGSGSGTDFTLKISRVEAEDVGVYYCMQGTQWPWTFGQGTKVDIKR

How the values were obtained:
Assay in all cases: cell-based or functional assay
[1] = target: S protein on pseudovirus of B.1.1.7 strain (hCoV-19/England/QEUH-F56F0F/2021) (SARS-CoV-2 B.1.1.7 strain)
[2] = target: S protein on pseudovirus of B.1.351 strain (SARS-CoV-2 B.1.351 strain)
[3] = target: S protein on pseudovirus of p.1 strain (SARS-CoV-2 p.1 strain)

Binder	IC50, pseudovirus neutralisation (method as 3.15) [1]	IC50, pseudovirus neutralisation (method as 3.15) [2]	IC50, pseudovirus neutralisation (method as 3.15) [3]
B1	4.06 nM	12.2 nM	3.53 nM
B2	3.17 nM	13.9 nM	1.58 nM
